Results: publication PMC12311017

Target: USP1/UAF1 (USP1 res. 21-785, G670A + G671A, with UAF1 res. 9-677) (UniProt O94782)
Assay: global kinetic model

Sequence of UniProt O94782 (O94782 21-785 G670A/G671A, chain 1 of 2): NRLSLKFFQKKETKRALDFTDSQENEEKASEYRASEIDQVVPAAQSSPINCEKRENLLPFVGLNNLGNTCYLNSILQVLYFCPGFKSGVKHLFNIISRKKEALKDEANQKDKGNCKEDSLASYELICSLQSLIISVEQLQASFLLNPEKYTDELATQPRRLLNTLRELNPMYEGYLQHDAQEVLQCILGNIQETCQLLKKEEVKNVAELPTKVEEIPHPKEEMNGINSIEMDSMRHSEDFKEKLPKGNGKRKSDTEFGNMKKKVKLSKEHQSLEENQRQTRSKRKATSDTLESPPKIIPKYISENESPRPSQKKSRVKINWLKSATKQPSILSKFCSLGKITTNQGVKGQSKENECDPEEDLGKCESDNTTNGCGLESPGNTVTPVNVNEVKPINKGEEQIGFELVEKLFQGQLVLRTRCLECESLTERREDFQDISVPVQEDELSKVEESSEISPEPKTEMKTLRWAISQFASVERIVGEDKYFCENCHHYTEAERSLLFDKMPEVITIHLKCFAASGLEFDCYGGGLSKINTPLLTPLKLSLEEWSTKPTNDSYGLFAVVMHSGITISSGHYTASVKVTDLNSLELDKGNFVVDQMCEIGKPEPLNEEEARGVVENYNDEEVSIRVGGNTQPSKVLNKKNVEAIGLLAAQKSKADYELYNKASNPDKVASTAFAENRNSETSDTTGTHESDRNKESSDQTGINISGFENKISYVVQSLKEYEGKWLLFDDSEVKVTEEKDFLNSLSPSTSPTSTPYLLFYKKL
Sequence of UniProt O94782 (Q8TAF3 9-677, chain 2 of 2, further chain): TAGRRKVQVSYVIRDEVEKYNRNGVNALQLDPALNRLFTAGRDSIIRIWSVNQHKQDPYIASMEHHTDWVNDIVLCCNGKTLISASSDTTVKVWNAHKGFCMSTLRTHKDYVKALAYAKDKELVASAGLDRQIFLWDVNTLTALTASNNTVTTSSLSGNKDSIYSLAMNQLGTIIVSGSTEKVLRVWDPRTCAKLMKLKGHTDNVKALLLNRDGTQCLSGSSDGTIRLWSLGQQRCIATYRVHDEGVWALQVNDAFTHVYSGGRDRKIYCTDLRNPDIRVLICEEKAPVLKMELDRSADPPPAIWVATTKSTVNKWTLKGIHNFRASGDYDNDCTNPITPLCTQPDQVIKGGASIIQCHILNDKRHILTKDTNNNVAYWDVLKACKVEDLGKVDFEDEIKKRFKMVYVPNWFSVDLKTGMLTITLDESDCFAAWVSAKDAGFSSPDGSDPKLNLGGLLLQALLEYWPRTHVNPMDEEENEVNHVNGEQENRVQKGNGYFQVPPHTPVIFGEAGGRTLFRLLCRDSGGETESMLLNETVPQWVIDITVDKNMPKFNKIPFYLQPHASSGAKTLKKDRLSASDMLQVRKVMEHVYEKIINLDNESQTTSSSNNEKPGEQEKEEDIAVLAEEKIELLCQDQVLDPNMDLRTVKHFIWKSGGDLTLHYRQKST

koff: 1240 s⁻¹
Substance: K63-linked diubiquitinated PCNA (from UniProt P12004 1-261; P0CG47 1-76; P0CG47 1-76) (complex)
